Measurements as given in IntAct's records for PubMed 15522217.

B1: Crk-like protein (Homo sapiens), P46109 (parent)
chain: MSSARFDSSDRSAWYMGPVSRQEAQTRLQGQRHGMFLVRDSSTCPGDYVLSVSENSRVSHYIINSLPNRRFKIGDQEFDHLPALLEFYKIHYLDTTTLIEPAPRYPSPPMGSVSAPNLPTAEDNLEYVRTLYDFPGNDAEDLPFKKGEILVIIEKPEEQWWSARNKDGRVGMIPVPYVEKLVRSSPHGKHGNRNSNSYGIPEPAHAYAQPQTTTPLPAVSGSPGAAITPLPSTQNGPVFAKAIQKRVPCAYDKTALALEVGDIVKVTRMNINGQWEGEVNGRKGLFPFTHVKIFDPQNPDENE

Variants of: B1
Settings: with insr_human INSR
With H33R;S53P;K72R the “effect of a mutation on the interaction” value was “decreasing interaction”.

Variants of: B1
Settings: with insr_human INSR
Remark: another data set of the same source
For H33R;S53P;K72R, the “effect of a mutation on the interaction” value was “decreasing interaction”.
